Legend:
apc_human APC [1] = target: apc_human APC (UniProt P25054)
apc_human APC [2] = target: apc_human APC (UniProt P25054); remark: listed apart in the source

Cell division control protein 42 homolog (Homo sapiens), P60953 T17N, sequence (P60953 whole entry T17N): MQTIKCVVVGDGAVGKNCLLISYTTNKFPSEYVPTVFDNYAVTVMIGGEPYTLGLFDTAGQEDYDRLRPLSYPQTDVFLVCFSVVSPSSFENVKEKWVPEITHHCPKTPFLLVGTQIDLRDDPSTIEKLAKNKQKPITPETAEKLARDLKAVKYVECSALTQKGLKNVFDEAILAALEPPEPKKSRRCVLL
apc_human APC, sequence (P25054 whole entry): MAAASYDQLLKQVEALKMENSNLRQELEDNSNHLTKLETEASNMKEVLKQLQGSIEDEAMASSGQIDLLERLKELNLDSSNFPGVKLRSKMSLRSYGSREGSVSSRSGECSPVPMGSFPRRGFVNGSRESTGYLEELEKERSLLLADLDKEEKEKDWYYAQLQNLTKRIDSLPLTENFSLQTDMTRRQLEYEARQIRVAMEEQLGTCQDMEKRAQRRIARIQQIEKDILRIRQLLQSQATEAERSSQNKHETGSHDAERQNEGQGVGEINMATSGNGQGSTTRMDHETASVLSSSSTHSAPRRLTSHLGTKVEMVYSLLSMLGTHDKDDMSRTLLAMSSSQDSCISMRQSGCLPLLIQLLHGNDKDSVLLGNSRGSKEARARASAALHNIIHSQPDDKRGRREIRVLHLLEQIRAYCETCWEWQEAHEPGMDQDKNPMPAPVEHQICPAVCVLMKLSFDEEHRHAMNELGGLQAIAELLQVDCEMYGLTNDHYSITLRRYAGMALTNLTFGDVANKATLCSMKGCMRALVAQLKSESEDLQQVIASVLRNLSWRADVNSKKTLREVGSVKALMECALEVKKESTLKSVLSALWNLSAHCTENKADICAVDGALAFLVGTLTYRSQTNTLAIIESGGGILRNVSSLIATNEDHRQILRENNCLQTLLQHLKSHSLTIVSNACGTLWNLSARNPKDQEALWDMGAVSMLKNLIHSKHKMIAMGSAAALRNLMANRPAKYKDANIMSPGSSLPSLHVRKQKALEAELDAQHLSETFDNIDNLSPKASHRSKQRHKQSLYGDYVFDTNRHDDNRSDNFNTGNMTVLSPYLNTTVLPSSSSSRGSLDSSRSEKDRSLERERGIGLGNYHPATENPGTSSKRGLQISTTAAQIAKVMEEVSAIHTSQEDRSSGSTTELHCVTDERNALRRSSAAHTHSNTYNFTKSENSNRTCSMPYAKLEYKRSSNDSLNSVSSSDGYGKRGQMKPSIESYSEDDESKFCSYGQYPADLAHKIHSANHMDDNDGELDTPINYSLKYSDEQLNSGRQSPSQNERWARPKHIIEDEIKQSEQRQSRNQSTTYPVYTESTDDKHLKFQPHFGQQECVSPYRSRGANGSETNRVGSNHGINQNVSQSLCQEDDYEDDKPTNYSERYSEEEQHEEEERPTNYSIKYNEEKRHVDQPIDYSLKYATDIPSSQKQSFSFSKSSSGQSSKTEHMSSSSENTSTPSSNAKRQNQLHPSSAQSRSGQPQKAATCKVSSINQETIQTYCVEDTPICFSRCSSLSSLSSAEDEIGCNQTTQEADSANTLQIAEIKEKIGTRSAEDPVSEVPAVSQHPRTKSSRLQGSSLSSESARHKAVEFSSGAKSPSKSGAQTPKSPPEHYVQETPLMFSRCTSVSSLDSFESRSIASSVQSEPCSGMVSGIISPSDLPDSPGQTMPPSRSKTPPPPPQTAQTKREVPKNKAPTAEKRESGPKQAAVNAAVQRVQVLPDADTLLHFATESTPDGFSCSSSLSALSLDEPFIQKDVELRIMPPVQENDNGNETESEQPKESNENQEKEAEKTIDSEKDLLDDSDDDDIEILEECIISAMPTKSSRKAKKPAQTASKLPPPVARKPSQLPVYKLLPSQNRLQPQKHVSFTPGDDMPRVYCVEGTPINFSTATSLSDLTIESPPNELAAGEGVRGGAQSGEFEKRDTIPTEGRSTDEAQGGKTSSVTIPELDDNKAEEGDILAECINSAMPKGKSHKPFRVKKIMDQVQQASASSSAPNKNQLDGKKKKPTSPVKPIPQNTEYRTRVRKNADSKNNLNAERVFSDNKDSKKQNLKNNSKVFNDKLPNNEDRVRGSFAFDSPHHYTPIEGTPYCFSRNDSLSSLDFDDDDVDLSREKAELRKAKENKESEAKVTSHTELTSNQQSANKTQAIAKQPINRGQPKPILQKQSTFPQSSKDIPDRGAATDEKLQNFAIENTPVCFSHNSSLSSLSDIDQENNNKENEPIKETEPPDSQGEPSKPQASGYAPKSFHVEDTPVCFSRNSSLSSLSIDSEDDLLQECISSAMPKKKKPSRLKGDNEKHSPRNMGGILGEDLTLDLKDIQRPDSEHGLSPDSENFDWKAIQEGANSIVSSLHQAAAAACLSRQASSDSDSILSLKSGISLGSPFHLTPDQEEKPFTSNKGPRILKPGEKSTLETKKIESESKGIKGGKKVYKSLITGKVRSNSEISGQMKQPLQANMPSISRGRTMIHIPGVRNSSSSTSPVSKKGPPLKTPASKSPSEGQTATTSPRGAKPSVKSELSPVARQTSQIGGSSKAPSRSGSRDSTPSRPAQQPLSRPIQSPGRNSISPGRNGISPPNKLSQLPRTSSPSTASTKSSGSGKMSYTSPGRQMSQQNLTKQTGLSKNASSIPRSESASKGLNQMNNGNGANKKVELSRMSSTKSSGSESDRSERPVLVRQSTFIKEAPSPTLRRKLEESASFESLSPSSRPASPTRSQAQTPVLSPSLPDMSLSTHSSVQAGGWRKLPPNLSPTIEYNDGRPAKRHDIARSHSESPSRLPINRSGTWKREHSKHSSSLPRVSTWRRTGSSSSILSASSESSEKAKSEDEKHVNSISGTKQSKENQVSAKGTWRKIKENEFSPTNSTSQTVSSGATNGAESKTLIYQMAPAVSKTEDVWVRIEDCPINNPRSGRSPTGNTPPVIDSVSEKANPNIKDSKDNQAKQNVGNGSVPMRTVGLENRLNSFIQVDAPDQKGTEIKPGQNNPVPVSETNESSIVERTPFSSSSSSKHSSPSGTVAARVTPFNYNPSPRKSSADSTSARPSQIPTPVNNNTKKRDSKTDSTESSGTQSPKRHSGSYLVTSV

effect of a mutation on the interaction (apc_human APC [1]): decreasing interaction strength
effect of a mutation on the interaction (apc_human APC [2]): disrupting interaction strength
Substance: Cell division control protein 42 homolog (Homo sapiens), P60953 T17N
